Values of other authors, collected in PMC2848394.

Biological target: BMP-2 (Homo sapiens) (UniProt P12643)
Experiment: Biacore SPR

Chain of BMP-2 (Homo sapiens) (P12643 283-396): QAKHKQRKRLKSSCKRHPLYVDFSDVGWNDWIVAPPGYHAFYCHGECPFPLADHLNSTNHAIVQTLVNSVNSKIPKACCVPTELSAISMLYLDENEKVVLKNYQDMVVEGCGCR
Chain of Chordin (Q9H2X0 27-955): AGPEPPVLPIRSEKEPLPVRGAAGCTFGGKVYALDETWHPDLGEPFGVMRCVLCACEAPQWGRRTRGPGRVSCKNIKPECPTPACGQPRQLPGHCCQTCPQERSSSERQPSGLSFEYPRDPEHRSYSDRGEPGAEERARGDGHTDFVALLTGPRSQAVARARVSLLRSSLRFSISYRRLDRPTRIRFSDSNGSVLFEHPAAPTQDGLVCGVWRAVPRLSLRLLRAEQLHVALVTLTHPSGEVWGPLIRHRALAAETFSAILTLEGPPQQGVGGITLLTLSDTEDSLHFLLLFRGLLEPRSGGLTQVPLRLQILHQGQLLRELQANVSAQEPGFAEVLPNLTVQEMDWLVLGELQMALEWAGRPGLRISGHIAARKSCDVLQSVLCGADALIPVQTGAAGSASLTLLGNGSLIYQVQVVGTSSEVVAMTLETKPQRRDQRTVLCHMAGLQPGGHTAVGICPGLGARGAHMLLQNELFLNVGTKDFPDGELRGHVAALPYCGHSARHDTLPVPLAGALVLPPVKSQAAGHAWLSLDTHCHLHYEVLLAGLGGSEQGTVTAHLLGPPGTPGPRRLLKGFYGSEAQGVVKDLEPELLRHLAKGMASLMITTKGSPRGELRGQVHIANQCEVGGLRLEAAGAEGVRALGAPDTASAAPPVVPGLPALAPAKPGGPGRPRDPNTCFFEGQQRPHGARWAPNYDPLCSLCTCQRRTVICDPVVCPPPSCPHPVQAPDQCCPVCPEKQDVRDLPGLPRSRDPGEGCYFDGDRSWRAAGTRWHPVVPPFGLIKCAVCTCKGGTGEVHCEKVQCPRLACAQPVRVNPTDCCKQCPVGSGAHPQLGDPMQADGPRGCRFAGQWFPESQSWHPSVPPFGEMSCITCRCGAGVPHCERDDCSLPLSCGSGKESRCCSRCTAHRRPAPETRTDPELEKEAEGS

- Kd: 0.012 µM
Substance: Chordin (from UniProt Q9H2X0)
